Laboratory results: the supplement of paper PMC5998384

Key:
[1] = system: HeLa Kyoto; assay: solubility change mitosis vs G1/S (difference of NP-40 vs SDS log2 ratios) (log2 ratio difference); higher = more soluble in mitosis
[2] = system: HeLa Kyoto; assay: solubility in G1/S (NP-40 vs SDS abundance) (log2 ratio); higher = more soluble; details: cell cycle stage: G1/S
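For solubility change mitosis vs G1/S (difference of NP-40 vs SDS log2 ratios) in this document: synchronized HeLa Kyoto cells (double thymidine block for G1/S, nocodazole release for mitosis), protein amounts in NP-40 versus SDS lysates quantified by mass spectrometry, three biological replicates.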
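For solubility in G1/S (NP-40 vs SDS abundance) in this document: HeLa Kyoto cells arrested at G1/S by double thymidine block, proteins quantified by TMT10plex mass spectrometry in mild NP-40 versus SDS extracts, three biological replicates.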

MAP1A, sequence (chain, as listed by the source): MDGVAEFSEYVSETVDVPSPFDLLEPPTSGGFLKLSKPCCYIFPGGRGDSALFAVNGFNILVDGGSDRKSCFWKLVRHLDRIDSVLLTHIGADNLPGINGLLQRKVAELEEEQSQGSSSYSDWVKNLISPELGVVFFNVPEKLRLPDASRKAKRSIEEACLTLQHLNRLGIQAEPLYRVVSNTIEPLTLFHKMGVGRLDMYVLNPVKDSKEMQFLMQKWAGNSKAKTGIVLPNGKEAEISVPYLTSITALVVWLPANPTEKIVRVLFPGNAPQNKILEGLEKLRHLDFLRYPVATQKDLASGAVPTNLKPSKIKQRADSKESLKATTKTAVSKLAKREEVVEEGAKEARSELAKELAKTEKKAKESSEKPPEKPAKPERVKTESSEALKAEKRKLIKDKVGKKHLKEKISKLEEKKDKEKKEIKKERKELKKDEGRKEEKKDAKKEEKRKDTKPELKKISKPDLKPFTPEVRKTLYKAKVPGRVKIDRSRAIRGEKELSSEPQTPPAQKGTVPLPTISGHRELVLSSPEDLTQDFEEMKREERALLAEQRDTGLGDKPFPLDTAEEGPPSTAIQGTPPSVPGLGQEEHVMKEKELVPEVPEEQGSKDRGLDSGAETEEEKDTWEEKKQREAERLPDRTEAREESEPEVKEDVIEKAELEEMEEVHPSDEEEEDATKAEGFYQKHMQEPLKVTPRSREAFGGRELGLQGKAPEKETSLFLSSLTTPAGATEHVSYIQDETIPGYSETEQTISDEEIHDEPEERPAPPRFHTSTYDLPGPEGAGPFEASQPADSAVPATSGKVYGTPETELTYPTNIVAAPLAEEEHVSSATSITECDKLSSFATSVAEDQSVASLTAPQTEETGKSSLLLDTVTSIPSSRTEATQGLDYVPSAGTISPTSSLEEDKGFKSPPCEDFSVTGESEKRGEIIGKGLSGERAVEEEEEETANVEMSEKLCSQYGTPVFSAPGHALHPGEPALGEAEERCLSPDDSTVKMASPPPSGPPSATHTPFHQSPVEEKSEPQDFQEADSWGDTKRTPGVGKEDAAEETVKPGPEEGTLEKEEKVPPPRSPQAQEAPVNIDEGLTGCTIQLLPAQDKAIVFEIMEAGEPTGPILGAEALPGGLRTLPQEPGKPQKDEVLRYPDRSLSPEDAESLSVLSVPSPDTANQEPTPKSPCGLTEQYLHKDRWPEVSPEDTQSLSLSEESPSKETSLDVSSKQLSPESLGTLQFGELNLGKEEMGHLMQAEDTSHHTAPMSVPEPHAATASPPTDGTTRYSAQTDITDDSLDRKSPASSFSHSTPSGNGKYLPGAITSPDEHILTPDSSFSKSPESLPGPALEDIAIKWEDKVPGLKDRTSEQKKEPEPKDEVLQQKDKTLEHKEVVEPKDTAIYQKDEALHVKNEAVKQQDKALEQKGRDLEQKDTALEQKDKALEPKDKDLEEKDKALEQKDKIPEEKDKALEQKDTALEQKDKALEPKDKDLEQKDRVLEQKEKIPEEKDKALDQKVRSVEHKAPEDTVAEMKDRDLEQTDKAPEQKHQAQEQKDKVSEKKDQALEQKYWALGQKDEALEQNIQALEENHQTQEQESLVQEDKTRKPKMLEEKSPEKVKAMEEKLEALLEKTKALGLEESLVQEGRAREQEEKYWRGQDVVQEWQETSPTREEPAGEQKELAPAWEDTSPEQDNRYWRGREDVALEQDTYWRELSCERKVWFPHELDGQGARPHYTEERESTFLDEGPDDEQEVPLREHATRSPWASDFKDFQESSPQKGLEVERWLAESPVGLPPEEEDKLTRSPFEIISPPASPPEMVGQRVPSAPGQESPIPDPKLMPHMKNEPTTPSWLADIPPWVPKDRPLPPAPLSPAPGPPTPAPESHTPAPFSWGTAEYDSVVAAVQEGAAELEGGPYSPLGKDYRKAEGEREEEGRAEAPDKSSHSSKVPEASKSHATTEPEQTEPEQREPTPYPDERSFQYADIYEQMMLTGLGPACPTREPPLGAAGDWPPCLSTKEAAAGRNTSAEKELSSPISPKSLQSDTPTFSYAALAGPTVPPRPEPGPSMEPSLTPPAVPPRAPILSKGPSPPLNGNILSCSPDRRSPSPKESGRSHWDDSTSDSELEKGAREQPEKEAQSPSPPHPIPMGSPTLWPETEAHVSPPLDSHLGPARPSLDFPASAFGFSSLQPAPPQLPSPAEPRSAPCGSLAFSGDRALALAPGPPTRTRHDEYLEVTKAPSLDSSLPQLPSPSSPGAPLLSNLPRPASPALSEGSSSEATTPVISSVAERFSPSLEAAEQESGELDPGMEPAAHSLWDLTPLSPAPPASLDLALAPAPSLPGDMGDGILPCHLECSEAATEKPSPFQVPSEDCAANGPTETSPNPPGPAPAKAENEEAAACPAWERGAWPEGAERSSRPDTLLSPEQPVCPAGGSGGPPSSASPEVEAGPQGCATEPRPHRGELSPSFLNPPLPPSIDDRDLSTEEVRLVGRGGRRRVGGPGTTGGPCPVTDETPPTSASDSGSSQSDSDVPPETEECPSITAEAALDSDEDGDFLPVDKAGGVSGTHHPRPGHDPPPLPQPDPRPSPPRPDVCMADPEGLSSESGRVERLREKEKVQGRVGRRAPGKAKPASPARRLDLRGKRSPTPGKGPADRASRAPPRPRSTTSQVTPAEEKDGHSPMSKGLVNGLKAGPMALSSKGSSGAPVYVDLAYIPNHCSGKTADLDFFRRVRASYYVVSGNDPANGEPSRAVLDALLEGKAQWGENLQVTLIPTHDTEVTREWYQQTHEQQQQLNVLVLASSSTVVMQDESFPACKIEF

Row | Substance | solubility change mitosis (log2) [1] | solubility in G1/S (log2) [2]
1 | MAMQEKYPTEGISHVTSPSSDVIQKGSSLGTEWQTPVISEPFRSRFSRCSSVADSGDTAIGTSCSDIAEDFCSSSGSPPFQPIKSHVTIPTAHVMPSTLGTSPAKPNSTPVGPSSSKLPLSGLAESVGMTRNGDLGAMKHSPGLSRDLMYFSGATGENGIEQSWFPAVGHERQEEARKFDIPSMESTLNQSAMMETLYSDPHHRVRFHNPRTSTSKELYRVLPEAKKAPGSGAVFERNGPHSNSSGVLPLGLQPAPGLSKPLPSQVWQPSPDTWHPREQSCELSTCRQQLELIRLQMEQMQLQNGAICHHPAAFGPSLPILEPAQWISILNSNEHLLKEKELLIDKQRKHISQLEQKVRESELQVHSALLGRPAPFGDVCLLRLQELQRENTFLRAQFAQKTEALSREKIDLEKKLSASEVEVQLIRESLKVALQKHSEEVKKQEERVKGRDKHINNLKKKCQKESEQNREKQQRIETLERYLADLPTLEDHQKQSQQLKDSELKSTELQEKVTELESLLEETQAICREKEIQLESLRQREAEFSSAGHSLQDKQSVEETSGEGPEVEMESWQKRYDSLQKIVEKQQQKMDQLRSQVQSLEQEVAQEEGTSQALREEAQRRDSALQQLRTAVKELSVQNQDLIEKNLTLQEHLRQAQPGSPPSPDTAQLALELHQELASCLQDLQAVCSIVTQRAQGHDPNLSLLLGIHSAQHPETQLDLQKPDVIKRKLEEVQQLRRDIEDLRTTMSDRYAQDMGENCVTQ [CEP85] | -0.194 | 0.35
2 | MAP1A | -0.0549 | -0.122
3 | MAPGSRGERSSFRSRRGPGVPSPQPDVTMLSRLLKEHQAKQNERKELQEKRRREAITAATCLTEALVDHLNVGVAQAYMNQRKLDHEVKTLQVQAAQFAKQTGQWIGMVENFNQALKEIGDVENWARSIELDMRTIATALEYVYKGQLQSAPS [BLOC1S1] | 0.133 | 0.51
4 | MAPVSGSRSPDREASGSGGRRRSSSKSPKPSKSARSPRGRRSRSHSCSRSGDRNGLTHQLGGLSQGSRNQSYRSRSRSRSRERPSAPRGIPFASASSSVYYGSYSRPYGSDKPWPSLLDKEREESLRQKRLSERERIGELGAPEVWGLSPKNPEPDSDEHTPVEDEEPKKSTTSASTSEEEKKKKSSRSKERSKKRRKKKSSKRKHKKYSEDSDSDSDSETDSSDEDNKRRAKKAKKKEKKKKHRSKKYKKKRSKKSRKESSDSSSKESQEEFLENPWKDRTKAEEPSDLIGPEAPKTLTSQDDKPLNYGHALLPGEGAAMAEYVKAGKRIPRRGEIGLTSEEIASFECSGYVMSGSRHRRMEAVRLRKENQIYSADEKRALASFNQEERRKRENKILASFREMVYRKTKGKDDK [NKAP] | 0.107 | -0.301
5 | MAQEKMELDLEPDTSYGGTLRRSSSAPLIHGLSDLSQVFQPYTLRTRRNSTTIMSRHSLEEGLDMVNRETAHEREMQTAMQISQSWDESLSLSDSDFDKPEKLYSPKRIDFTPVSPAPSPTRGFGKMFVSSSGLPPSPVPSPRRFSRRSQSPVKCIRPSVLGPLKRKGEMETESQPKRLFQGTTNMLSPDAAQLSDLSSCSDILDGSSSSSGLSSDPLAKGSATAESPVACSNSCSSFILMDDLSPK [FAM122B] | -0.79 | 1.18
6 | MARRSQSSSQGDNPLAPGYLPPHYKEYYRLAVDALAEGGSEAYSRFLATEGAPDFLCPEELEHVSRHLRPPQYVTREPPEGSLLDVDMDGSSGTYWPVNSDQAVPELDLGWPLTFGFQGTEVTTLVQPPPPDSPSIKDEARRMIRSAQQVVAVVMDMFTDVDLLSEVLEAAARRVPVYILLDEMNAQHFLDMADKCRVNLQHVDFLRVRTVAGPTYYCRTGKSFKGHVKEKFLLVDCAVVMSGSYSFMWSFEKIHRSLAHVFQGELVSSFDEEFRILFAQSEPLVPSAAALARMDAYALAPYAGAGPLVGVPGVGAPTPFSFPKRAHLLFPPPREEGLGFPSFLDPDRHFLSAFRREEPPRMPGGALEPHAGLRPLSRRLEAEAGPAGELAGARGFFQARHLEMDAFKRHSFATEGAGAVENFAAARQVSRQTFLSHGDDFRFQTSHFHRDQLYQQQYQWDPQLTPARPQGLFEKLRGGRAGFADPDDFTLGAGPRFPELGPDGHQRLDYVPSSASREVRHGSDPAFAPGPRGLEPSGAPRPNLTQRFPCQAAARPGPDPAPEAEPERRGGPEGRAGLRRWRLASYLSGCHGEDGGDDGLPAPMEAEAYEDDVLAPGGRAPAGDLLPSAFRVPAAFPTKVPVPGPGSGGNGPEREGPEEPGLAKQDSFRSRLNPLVQRSSRLRSSLIFSTSQAEGAAGAAAATEKVQLLHKEQTVSETLGPGGEAVRSAASTKVAELLEKYKGPARDPGGGAGAITVASHSKAVVSQAWREEVAAPGAVGGERRSLESCLLDLRDSFAQQLHQEAERQPGAASLTAAQLLDTLGRSGSDRLPSRFLSAQSHSTSPQGLDSPLPLEGSGAHQVLHNESKGSPTSAYPERKGSPTPGFSTRRGSPTTGFIEQKGSPTSAYPERRGSPVPPVPERRSSPVPPVPERRGSLTLTISGESPKAGPAEEGPSGPMEVLRKGSLRLRQLLSPKGERRMEDEGGFPVPQENGQPESPRRLSLGQGDSTEAATEERGPRARLSSATANALYSSNLRDDTKAILEQISAHGQKHRAVPAPSPGPTHNSPELGRPPAAGVLAPDMSDKDKCSAIFRSDSLGTQGRLSRTLPASAEERDRLLRRMESMRKEKRVYSRFEVFCKKEEASSPGAGEGPAEEGTRDSKVGKFVPKILGTFKSKK [FAM83H] | -0.0789 | -0.733
7 | MASATAPAAAVPTLASPLEQLRHLAEELRLLLPRVRVGEAQETTEEFNREMFWRRLNEAAVTVSREATTLTIVFSQLPLPSPQETQKFCEQVHAAIKAFIAVYYLLPKDQGITLRKLVRGATLDIVDGMAQLMEVLSVTPTQSPENNDLISYNSVWVACQQMPQIPRDNKAAALLMLTKNVDFVKDAHEEMEQAVEECDPYSGLLNDTEENNSDNHNHEDDVLGFPSNQDLYWSEDDQELIIPCLALVRASKACLKKIRMLVAENGKKDQVAQLDDIVDISDEISPSVDDLALSIYPPMCHLTVRINSAKLVSVLKKALEITKASHVTPQPEDSWIPLLINAIDHCMNRIKELTQSELEL [CCNDBP1] | -0.176 | 0.509
8 | MASDGARKQFWKRSNSKLPGSIQHVYGAQHPPFDPLLHGTLLRSTAKMPTTPVKAKRVSTFQEFESNTSDAWDAGEDDDELLAMAAESLNSEVVMETANRVLRNHSQRQGRPTLQEGPGLQQKPRPEAEPPSPPSGDLRLVKSVSESHTSCPAESASDAAPLQRSQSLPHSATVTLGGTSDPSTLSSSALSEREASRLDKFKQLLAGPNTDLEELRRLSWSGIPKPVRPMTWKLLSGYLPANVDRRPATLQRKQKEYFAFIEHYYDSRNDEVHQDTYRQIHIDIPRMSPEALILQPKVTEIFERILFIWAIRHPASGYVQGINDLVTPFFVVFICEYIEAEEVDTVDVSGVPAEVLCNIEADTYWCMSKLLDGIQDNYTFAQPGIQMKVKMLEELVSRIDEQVHRHLDQHEVRYLQFAFRWMNNLLMREVPLRCTIRLWDTYQSEPDGFSHFHLYVCAAFLVRWRKEILEEKDFQELLLFLQNLPTAHWDDEDISLLLAEAYRLKFAFADAPNHYKK [TBC1D22A] | -0.253 | 0.31
9 | MASESSPLLAYRLLGEEGVALPANGAGGPGGASARKLSTFLGVVVPTVLSMFSIVVFLRIGFVVGHAGLLQALAMLLVAYFILALTVLSVCAIATNGAVQGGGAYFMISRTLGPEVGGSIGLMFYLANVCGCAVSLLGLVESVLDVFGADATGPSGLRVLPQGYGWNLLYGSLLLGLVGGVCTLGAGLYARASFLTFLLVSGSLASVLISFVAVGPRDIRLTPRPGPNGSSLPPRFGHFTGFNSSTLKDNLGAGYAEDYTTGAVMNFASVFAVLFNGCTGIMAGANMSGELKDPSRAIPLGTIVAVAYTFFVYVLLFFLSSFTCDRTLLQEDYGFFRAISLWPPLVLIGIYATALSASMSSLIGASRILHALARDDLFGVILAPAKVVSRGGNPWAAVLYSWGLVQLVLLAGKLNTLAAVVTVFYLVAYAAVDLSCLSLEWASAPNFRPTFSLFSWHTCLLGVASCLLMMFLISPGAAGGSLLLMGLLAALLTARGGPSSWGYVSQALLFHQVRKYLLRLDVRKDHVKFWRPQLLLLVGNPRGALPLLRLANQLKKGGLYVLGHVTLGDLDSLPSDPVQPQYGAWLSLVDRAQVKAFVDLTLSPSVRQGAQHLLRISGLGGMKPNTLVLGFYDDAPPQDHFLTDPAFSEPADSTREGSSPALSTLFPPPRAPGSPRALNPQDYVATVADALKMNKNVVLARASGALPPERLSRGSGGTSQLHHVDVWPLNLLRPRGGPGYVDVCGLFLLQMATILGMVPAWHSARLRIFLCLGPREAPGAAEGRLRALLSQLRIRAEVQEVVWGEGAGAGEPEAEEEGDFVNSGRGDAEAEALARSANALVRAQQGRGTGGGPGGPEGGDAEGPITALTFLYLPRPPADPARYPRYLALLETLTRDLGPTLLVHGVTPVTCTDL [SLC12A9] | 0.119 | -0.0513
10 | MASGVGAAFEELPHDGTCDECEPDEAPGAEEVCRECGFCYCRRHAEAHRQKFLSHHLAEYVHGSQAWTPPADGEGAGKEEAEVKVEQEREIESEAGEESESEEESESEEESETEEESEDESDEESEEDSEEEMEDEQESEAEEDNQEEGESEAEGETEAESEFDPEIEMEAERVAKRKCPDHGLDLSTYCQEDRQLICVLCPVIGAHQGHQLSTLDEAFEELRSKDSGGLKAAMIELVERLKFKSSDPKVTRDQMKMFIQQEFKKVQKVIADEEQKALHLVDIQEAMATAHVTEILADIQSHMDRLMTQMAQAKEQLDTSNESAEPKAEGDEEGPSGASEEEDT [TRIM44] | -0.202 | -0.118
11 | MASLQRKGLQARILTSEEEEKLKRDQTLVSDFKQQKLEQEAQKNWDLFYKRNSTNFFKDRHWTTREFEELRSCREFEDQKLTMLEAGCGVGNCLFPLLEEDPNIFAYACDFSPRAIEYVKQNPLYDTERCKVFQCDLTKDDLLDHVPPESVDVVMLIFVLSAVHPDKMHLVLQNIYKVLKPGKSVLFRDYGLYDHAMLRFKASSKLGENFYVRQDGTRSYFFTDDFLAQLFMDTGYEEVVNEYVFRETVNKKEGLCVPRVFLQSKFLKPPKNPSPVVLGLDPKS [METTL6] | 0.018 | 0.0543
12 | MASNSSSCPTPGGGHLNGYPVPPYAFFFPPMLGGLSPPGALTTLQHQLPVSGYSTPSPATIETQSSSSEEIVPSPPSPPPLPRIYKPCFVCQDKSSGYHYGVSACEGCKGFFRRSIQKNMVYTCHRDKNCIINKVTRNRCQYCRLQKCFEVGMSKESVRNDRNKKKKEVPKPECSESYTLTPEVGELIEKVRKAHQETFPALCQLGKYTTNNSSEQRVSLDIDLWDKFSELSTKCIIKTVEFAKQLPGFTTLTIADQITLLKAACLDILILRICTRYTPEQDTMTFSDGLTLNRTQMHNAGFGPLTDLVFAFANQLLPLEMDDAETGLLSAICLICGDRQDLEQPDRVDMLQEPLLEALKVYVRKRRPSRPHMFPKMLMKITDLRSISAKGAERVITLKMEIPGSMPPLIQEMLENSEGLDTLSGQPGGGGRDGGGLAPPPGSCSPSLSPSSNRSSPATHSP [RARA] | -0.153 | 0.18
13 | MASPSKAVIVPGNGGGDVTTHGWYGWVKKELEKIPGFQCLAKNMPDPITARESIWLPFMETELHCDEKTIIIGHSSGAIAAMRYAETHRVYAIVLVSAYTSDLGDENERASGYFTRPWQWEKIKANCPYIVQFGSTDDPFLPWKEQQEVADRLETKLHKFTDCGHFQNTEFHELITVVKSLLKVPA [RBBP9] | 0.00166 | 0.42
